# According to the Immune Epitope Database (IEDB):
# pKd: −log10 of the molar value.
# Key:
# [1] = target: HLA-A*31:01; experiment: IEDB peptide-MHC binding, purified MHC/competitive/radioactivity; filed as Kd, often an IC50 or EC50 that approximates it; ≥ and ≤ were set here for values at or beyond the usual limits of such assays; conditions: source organism: Vaccinia virus WR
# [2] = target: HLA-A*29:02; experiment: as above
# [3] = target: HLA-A*03:01; experiment: as above; conditions: source organism: Vaccinia virus WR
# [4] = target: HLA-A*11:01; experiment: as above; conditions: source organism: Vaccinia virus WR
# [5] = target: HLA-A*68:01; experiment: as above
# [6] = target: HLA-A*33:01; experiment: as above
# [7] = target: HLA-A*23:01; experiment: as above
# [8] = target: HLA-A*01:01; experiment: as above
# [9] = target: HLA-A*30:02; experiment: as above
# [10] = target: HLA-A*24:02; experiment: as above
# [11] = target: HLA-A*26:01; experiment: as above
# [12] = target: HLA-A*31:01; experiment: IEDB peptide-MHC binding, purified MHC/direct/fluorescence; filed as Kd, often an IC50 or EC50 that approximates it; ≥ and ≤ were set here for values at or beyond the usual limits of such assays
# [13] = target: HLA-A*03:01; experiment: as above
# [14] = target: HLA-A*11:01; experiment: as above
# [15] = target: HLA-B*15:01; experiment: as above
# [16] = target: HLA-A*01:01; experiment: as above; conditions: source organism: Mycoplasmoides genitalium
# [17] = target: HLA-A*69:01; experiment: as above; conditions: source organism: Mycoplasmoides genitalium
# [18] = target: HLA-A*30:01; experiment: IEDB peptide-MHC binding, purified MHC/competitive/radioactivity; filed as Kd, often an IC50 or EC50 that approximates it; ≥ and ≤ were set here for values at or beyond the usual limits of such assays; conditions: source organism: Vaccinia virus WR
# [19] = source organism: Vaccinia virus WR
# [20] = source organism: SARS coronavirus Tor2
# [21] = source organism: Mammarenavirus brazilense
# [22] = source organism: Triticum aestivum
# [23] = source organism: Burkholderia lata
# [24] = source organism: Giardia intestinalis
# [25] = source organism: Lassa virus GA391
# [26] = source organism: Mycoplasmoides genitalium
Sequence,"pKd [7, 20]","pKd [2, 20]","pKd [8, 20]","pKd [9, 20]","pKd [10, 20]","pKd [11, 20]",other results
NTLISSDGAR,,,,,,,"pKd [1]: 6.59; pKd [2, 19]: ≤ 4.33; pKd [3]: 5.63; pKd [4]: 6.44; pKd [5, 19]: 8.22; pKd [6, 19]: 6.54"
NYFKKVDGI,4.94,5.60,≤ 4.29,4.93,≤ 4.69,≤ 4.11,
PTLVPQEHY,≤ 4.11,4.96,5.04,5.35,≤ 4.11,≤ 3.99,
QLFKPLTKK,,,,,,,"pKd ([12]; source organism: SARS-CoV1): 6.01; pKd [5, 20]: 4.77; pKd [6, 20]: ≤ 4.11"
QMISSIDRFF,,,,,,,"pKd [7, 21]: 6.12; pKd [2, 21]: 5.73; pKd [10, 21]: 5.33"
QYIKWPWYVW,9.11,5.41,≤ 4.49,4.97,8.61,≤ 4.16,
QYPSGQGSF,,,,,,,"pKd [7, 22]: ≤ 4.45; pKd [2, 22]: 6.76; pKd [8, 22]: ≤ 4.21; pKd [9, 22]: 8.93; pKd [10, 22]: 5.47; pKd [11, 22]: ≤ 4.31"
RMYIFFASF,7.12,5.68,≤ 4.68,5.91,6.97,5.15,
RYNLDPDSI,,,,,,,"pKd [7, 21]: 5.13; pKd [2, 21]: ≤ 4.47; pKd [10, 21]: 4.75"
SIKRNYPYLF,,,,,,,"pKd [7, 21]: 6.12; pKd [2, 21]: 5.63; pKd [10, 21]: 5.99"
SINDPRWGR,,,,,,,"pKd [12, 23]: 7.56; pKd [13, 23]: ≤ 4.70"
SLRPNDIVY,,,,,,,"pKd [13, 24]: 4.87; pKd [14, 24]: 5.15; pKd [15, 24]: 6.82"
SWFITQRNF,5.41,7.79,≤ 4.11,9.67,≤ 4.40,≤ 4.11,
SYATHHDKF,≤ 4.04,≤ 4.65,≤ 4.40,≤ 4.07,≤ 3.98,≤ 4.11,
TLAAAANSY,,,,,,,pKd ([15]; source organism: Mycobacterium tuberculosis C): 6.24
TTTGIGYQPY,≤ 4.15,8.06,6.90,6.69,≤ 4.15,7.25,
TYTEIEPKL,≤ 4.67,4.91,≤ 4.11,≤ 4.10,≤ 4.53,≤ 4.11,
VTFQGKFKK,,,,,,,"pKd ([12]; source organism: SARS-CoV1): 7.15; pKd [5, 20]: 7.88; pKd [6, 20]: 5.07"
VYHITVSQI,7.01,≤ 4.54,≤ 4.50,≤ 4.09,7.58,≤ 4.11,
YCNYSRYWYL,,,,,,,"pKd [7, 25]: 5.94; pKd [2, 25]: 5.08; pKd [8, 25]: ≤ 4.15; pKd [9, 25]: 4.92; pKd [10, 25]: 5.48; pKd [11, 25]: ≤ 4.16"
YSDIPRLKK,,,,,,,"pKd [12, 26]: 6.12; pKd [13, 26]: 6.43; pKd [14, 26]: 7.03; pKd [16]: 5.79; pKd [17]: 6.38"
YSELRPDTRY,≤ 4.15,6.85,8.21,6.78,≤ 4.44,4.92,
YTFFSYLMK,,,,,,,"pKd [18]: 6.33; pKd [1]: 5.40; pKd [3]: 8.01; pKd [4]: 9.25; pKd [5, 19]: 9.09; pKd [6, 19]: 5.52"
